Test results reported in PMC11865173, “Improving the hydrophilic microenvironment surrounding the catalytic site of fructosyltransferase enhances its catalytic ability” (Biotechnology Letters, 2025).

B1: SucC (Aspergillus niger) (protein)
chain: MQTRASVVIDYNVAPPNLSTLPNGSLFETWRPRAHVLPPNGQIGDPCLHYTDPSTGLFHVGFLHDGSGISSATTDDLATYKDLNQGNQVIVPGGINDPVAVFDGSVIPSGINGLPTLLYTSVSFLPIHWSIPYTRGSETQSLAVSSDGGSNFTKLDQGPVIPGPPFAYNVTAFRDPYVFQNPTLDSLLHSKNNTWYTVISGGLHGKGPAQFLYRQYDPDFQYWEFLGQWWHEPTNSTWGNGTWAGRWAFNFETGNVFSLDEYGYNPHGQIFSTIGTEGSDQPVVPQLTSIHDMLWVSGNVSRNGSVSFTPNMAGFLDWGFSSYAAAGKVLPSTSLPSTKSGAPDRFISYVWLSGDLFEQAEGFPTNQQNWTGTLLLPRELRVLYIPNVVDNALARESGASWQVVSSDSSAGTVELQTLGISIARETKAALLSGTSFTESDRTLNSSGVVPFKRSPSEKFFVLSAQLSFPASARGSGLKSGFQILSSELESTTVYYQFSNESIIVDRSNTSAAARTTDGIDSSAEAGKLRLFDVLNGGEQAIETLDLTLVVDNSVLEIYANGRFALSTWVRSWYANSTNISFFQNGVGGVAFSNVTVSEGLYDAWPDRQS
notes: codon-optimised synthetic gene downstream of alpha-factor in pPIC9K, secreted from Pichia pastoris GS115; purified by size exclusion chromatography; model covers residues 25-628; no tag mentioned

Columns and labels:
[1] = tested on: T1, OC[C@H]1O[C@@](CO)(O[C@H]2O[C@H](CO)[C@@H](O)[C@H](O)[C@H]2O)[C@@H](O)[C@@H]1O; assay: glucose release measured by biosensor, Michaelis-Menten nonlinear fit; assay type: biochemical, Aspergillus niger; settings: 50 °C, pH 5.5, 5 min, transfructosylation
T1 construct: codon-optimised synthetic gene downstream of alpha-factor in pPIC9K, secreted from Pichia pastoris GS115; purified by size exclusion chromatography; model covers residues 25-628; no tag mentioned
Description: (§1) glucose release measured by biosensor, Michaelis-Menten nonlinear fit on SucC

[2] = substrate: OC[C@H]1O[C@@](CO)(O[C@H]2O[C@H](CO)[C@@H](O)[C@H](O)[C@H]2O)[C@@H](O)[C@@H]1O; assay: as above; assay type: biochemical, Aspergillus niger; settings: 50 °C, pH 5.5, 5 min, transfructosylation
Description: as §1

| Molecule | Km [1] [mM] | kcat [1] [s⁻¹] | kcat/Km [1] [M⁻¹ s⁻¹] | Km [2] [mM] | kcat [2] [s⁻¹] | kcat/Km [2] [M⁻¹ s⁻¹] |
| --- | --- | --- | --- | --- | --- | --- |
| SucC (Aspergillus niger; C66S) | 71.14 | 2.27 | 32 | – | – | – |
| B1 | – | – | – | 82.20 | 1.87 | 22.8 |
